Assay results as given in article PMC2929599 (Biochemistry, 2009).

Tests used:
[1] = molecular target: T1, hTHEM2 (human hotdog-fold thioesterase THEM2, thioesterase superfamily member 2) (Homo sapiens, UniProt Q9NPJ3); assay: steady-state competitive inhibition, DTNB thioesterase assay; assay type: biochemical
T1 sequence (Q9NPJ3 1-140): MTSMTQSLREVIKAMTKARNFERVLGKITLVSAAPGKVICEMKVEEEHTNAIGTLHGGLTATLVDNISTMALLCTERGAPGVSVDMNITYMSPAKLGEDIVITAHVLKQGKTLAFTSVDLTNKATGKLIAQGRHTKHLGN

[2] = substrate: CCCCCC/C=C\CCCCCCCC(=O)SCCNC(=O)CCNC(=O)[C@H](O)C(C)(C)COP(=O)(O)OP(=O)(O)OC[C@H]1O[C@@H](n2cnc3c(N)ncnc32)[C@H](O)[C@@H]1OP(=O)(O)O; assay: steady-state hydrolysis kinetics; assay type: biochemical, Homo sapiens; settings: pH 7.5; 25.0 °C
[3] = substrate: CC(C)(COP(=O)(O)OP(=O)(O)OC[C@H]1O[C@@H](n2cnc3c(N)ncnc32)[C@H](O)[C@@H]1OP(=O)(O)O)[C@@H](O)C(=O)NCCC(=O)NCCSC(=O)Cc1cccc(O)c1; assay: steady-state hydrolysis kinetics; assay type: biochemical, Homo sapiens; settings: pH 7.5; 25.0 °C
[4] = substrate: CCCCCCCCCCCC(=O)SCCNC(=O)CCNC(=O)[C@H](O)C(C)(C)COP(=O)(O)OP(=O)(O)OC[C@H]1O[C@@H](n2cnc3c(N)ncnc32)[C@H](O)[C@@H]1OP(=O)(O)O; assay: steady-state hydrolysis kinetics; assay type: biochemical, Homo sapiens; settings: pH 7.5; 25.0 °C
[5] = substrate: CCCCCCCCCC(=O)SCCNC(=O)CCNC(=O)[C@H](O)C(C)(C)COP(=O)(O)OP(=O)(O)OC[C@H]1O[C@@H](n2cnc3c(N)ncnc32)[C@H](O)[C@@H]1OP(=O)(O)O; assay: steady-state hydrolysis kinetics; assay type: biochemical, Homo sapiens; settings: pH 7.5; 25.0 °C
[6] = substrate: CC(C)(COP(=O)(O)OP(=O)(O)OC[C@H]1O[C@@H](n2cnc3c(N)ncnc32)[C@H](O)[C@@H]1OP(=O)(O)O)[C@@H](O)C(=O)NCCC(=O)NCCSC(=O)Cc1ccc(O)c(O)c1; assay: steady-state hydrolysis kinetics; assay type: biochemical, Homo sapiens; settings: pH 7.5; 25.0 °C
[7] = substrate: CCCCCCCC/C=C\CCCCCCCC(=O)SCCNC(=O)CCNC(=O)[C@H](O)C(C)(C)COP(=O)(O)OP(=O)(O)OC[C@H]1O[C@@H](n2cnc3c(N)ncnc32)[C@H](O)[C@@H]1OP(=O)(O)O; assay: steady-state hydrolysis kinetics; assay type: biochemical, Homo sapiens; settings: pH 7.5; 25.0 °C
purified protein = substrate: CCCCCCCCCCCCCC(=O)SCCNC(=O)CCNC(=O)[C@H](O)C(C)(C)COP(=O)(O)OP(=O)(O)OC[C@H]1O[C@@H](n2cnc3c(N)ncnc32)[C@H](O)[C@@H]1OP(=O)(O)O; assay: purified protein; settings: pH 7.5; 25.0 °C

For CCNC(=O)CCNC(=O)[C@H](O)C(C)(C)COP(=O)(O)OP(=O)(O)OC[C@H]1O[C@@H](n2cnc3c(N)ncnc32)[C@H](O)[C@@H]1OP(=O)(O)O [desulfoCoA], the Ki [1] was 9 µM.

B1: hTHEM2 (human hotdog-fold thioesterase THEM2, thioesterase superfamily member 2) (Homo sapiens) (protein)
chain: T1 sequence (Q9NPJ3 1-140)
For B1, the Km [2] was 9 µM, the kcat [2] was 0.017 ± 0.001 s⁻¹ and the kcat/Km [2] was 1900 M⁻¹ s⁻¹. It also gave a Km [3] of 41 µM, a kcat [3] of 1.4 ± 0.1 s⁻¹ and a kcat/Km [3] of 35000 M⁻¹ s⁻¹. The Km [4] was 9.9 µM, the kcat [4] was 0.019 ± 0.001 s⁻¹ and the kcat/Km [4] was 1900 M⁻¹ s⁻¹. For the same molecule, the Km [5] was 4.9 µM, the kcat [5] was 0.016 ± 0.001 s⁻¹ and the kcat/Km [5] was 3300 M⁻¹ s⁻¹. The Km [6] was 10 µM, the kcat [6] was 0.19 ± 0.01 s⁻¹ and the kcat/Km [6] was 18000 M⁻¹ s⁻¹. The Km [7] was 9 µM, the kcat [7] was 0.011 ± 0.001 s⁻¹ and the kcat/Km [7] was 1300 M⁻¹ s⁻¹. The Km (purified protein) was 5 µM, the kcat (purified protein) was 0.02 s⁻¹ and the kcat/Km (purified protein) was 4000 M⁻¹ s⁻¹.
